{
  "source": "paper PMC7822847",
  "about": "“Structural insights into vesicle amine transport-1 (VAT-1) as a member of the NADPH-dependent quinone oxidoreductase family” (Scientific Reports, 2021)",
  "proteins": {"B1": {"name": "N-truncated human VAT-1 (43–393 residues) (domain or fragment, UniProt Q99536 43-393, looked up)", "chain": "ASPPLLRCLVLTGFGGYDKVKLQSRPAAPPAPGPGQLTLRLRACGLNFADLMARQGLYDRLPPLPVTPGMEGAGVVIAVGEGVSDRKAGDRVMVLNRSGMWQEEVTVPSVQTFLIPEAMTFEEAAALLVNYITAYMVLFDFGNLQPGHSVLVHMAAGGVGMAAVQLCRTVENVTVFGTASASKHEALKENGVTHPIDYHTTDYVDEIKKISPKGVDIVMDPLGGSDTAKGYNLLKPMGKVVTYGMANLLTGPKRNLMALARTWWNQFSVTALQLLQANRAVCGFHLGYLDGEVELVSGVVARLLALYNQGHIKPHIDSVWPFEKVADAMKQMQEKKNVGKVLLVPGPEKEN", "notes": "Written as the protomer; homodimer in both crystal forms, dimer to tetramer (dimer-dimer) in solution by SEC; also called vesicle amine transport protein-1; source: E. coli Rosetta 2 (DE3), purified (Glutathione Sepharose, HRV 3C cleavage, HiTrap SP, Superdex 200); not shown: GST, N-terminal, cleaved"}, "B2": {"name": "human VAT-1 (full-length, 1–393 residues) (natural protein, UniProt Q99536 1-393, looked up)", "chain": "MSDEREVAEAATGEDASSPPPKTEAASDPQHPAASEGAAAAAASPPLLRCLVLTGFGGYDKVKLQSRPAAPPAPGPGQLTLRLRACGLNFADLMARQGLYDRLPPLPVTPGMEGAGVVIAVGEGVSDRKAGDRVMVLNRSGMWQEEVTVPSVQTFLIPEAMTFEEAAALLVNYITAYMVLFDFGNLQPGHSVLVHMAAGGVGMAAVQLCRTVENVTVFGTASASKHEALKENGVTHPIDYHTTDYVDEIKKISPKGVDIVMDPLGGSDTAKGYNLLKPMGKVVTYGMANLLTGPKRNLMALARTWWNQFSVTALQLLQANRAVCGFHLGYLDGEVELVSGVVARLLALYNQGHIKPHIDSVWPFEKVADAMKQMQEKKNVGKVLLVPGPEKEN", "notes": "Written as the protomer; dimer at low concentration, tetramer at 300 µM by SEC; also called vesicle amine transport protein-1; source: E. coli Rosetta 2 (DE3), purified (Glutathione Sepharose, HRV 3C cleavage, HiTrap SP, Superdex 200); not shown: GST, N-terminal, cleaved"}},
  "key": {"[1]": {"target": "the molecule itself", "assay": "crystal structure; free form of VAT-1 (43–393), 2.3 Å; crystals from 100 mM BisTris pH 6.0, 200 mM sodium nitrate, 22% PEG 3350, 20 °C"}, "[2]": {"target": "the molecule itself", "assay": "SEC; Superdex 200 (10/30), 10 mM Tris–HCl pH 7.2, 100 mM NaCl, 0.5 mM TCEP, 8 °C; low concentration (samples loaded at 10, 20, 50 µM; also with 10-fold molar NADP); monomers to dimer"}, "[3]": {"target": "the molecule itself", "assay": "SEC; Superdex 200 (10/30), 10 mM Tris–HCl pH 7.2, 100 mM NaCl, 0.5 mM TCEP, 8 °C; higher concentrations (loaded at 300 µM, no NADP); dimers to tetramer (dimer–dimer)"}},
  "data": [
    {"protein": "B1", "values": [
      {"measurement": "stoichiometry N", "setting": "[1]", "value": 2}
    ]},
    {"protein": "B2", "values": [
      {"measurement": "stoichiometry N", "setting": "[2]", "value": 2},
      {"measurement": "stoichiometry N", "setting": "[3]", "value": 4}
    ]}
  ]
}
